# Entries after “also recorded” stand apart in the source; their conditions may differ.
# B1: mut-sFasL: mutant sFasL molecule in which 8 charged amino acids in the 26 amino acid stalk region were changed to alanine (protein)
# chain: QLFALQAALAALAASTSQMATASSLAKQIGHPSPPPEKKELRKVAHLTGKSNSRSMPLEWEDTYGIVLLSGVKYKKGGLVINETGLYFVYSKVYFRGQSCNNLPLSHKVYMRNSKYPQDLVMMEGKMMSYCTTGQMWARSSYLGAVFNLTSADHLYVNVSELSLVNFEESQTFFGLYKL
# Test system: LPS-treated C57BL/6 mice
# Assay: Oropharyngeal LPS lung injury model in C57BL/6 mice treated with mut-sFasL
# Assay type: in vivo, mouse
# Details: for pro-injury or pro-inflammatory effects: normal lungs / administered 24 hours after intratracheal LPS, any dose
# Experimental: FIGS. 5A-E show the effects of mut-sFasL on markers of lung inflammation in LPS-treated mice. C57BL/6 mice received oropharyngeal instillations of either PBS or LPS, 2.5 μg/mL. Four hours later some of the mice received oropharyngeal instillations of PBS or mut-sFasL at concentrations of 10 and 100 ng/g and were euthanized 24 hours after the initial LPS/PBS instillations (“early” group). Other mice received the PBS or mut-sFasL (same dose range) 24 hours after LPS/PBS and were euthanized 48 hours after the original LPS instillation (“late” group). N=6 for the groups. In the “late” group, treatment with 100 ng/g mut-sFasL reduced BAL total cells (FIG. 5A), lung homogenate MPO activity (FIG. 5B), and the BAL concentrations of TNF-α, MIP-1β and MCP-1 (FIGS. 5C-E). Data were analyzed by 2-way ANOVA with Dunnet's post hoc analysis; comparisons made to 0 ng/mL for each condition. Data are reported as box plots, in which the box depicts the 25th to 75th percentiles and the lines the min to max range. *=P<0.05; **=P<0.01, ***P<0.001.
# FIGS. 6A-D show the effects of mut-sFasL in LPS treated mice. C57BL/6 mice received oropharyngeal instillations of either PBS, or LPS, 2.5 μg/mL. Four hours later some of the mice received oropharyngeal instillations of PBS or mut-sFasL at concentrations of 10 and 100 ng/g and were euthanized 24 hours after the initial LPS/PBS instillations (“early” group). Other mice received the PBS or mut-sFasL (same dose range) 24 hours after LPS/PBS and were euthanized 48 hours after the original LPS instillation (“late” group). N=6 for all groups. […] The administration of mut-sFasL had no effect total BAL protein (FIG. 6B), BAL IgM (FIG. 6C) or total lung homogenate caspase 3/7 activity (FIG. 6D). Data are reported as box plots, in which the box depicts the 25th to 75th percentiles and the lines the min to max range. Data were analyzed by 2-way ANOVA with Dunnett's post hoc analysis; comparisons were made to 0 ng/mL for each condition.
# Animal studies. Mice were housed in conventional cages with ad libitum access to tap water and standard chow, in humidity-controlled (50%) and temperature-controlled (22° C.-23° C.) rooms with 12 hours/12 hours light/dark cycles. In the morning, male C57BL/6J mice (Jackson Laboratories, Bar Harbor Me.) weighing […] were anesthetized with 4% inhaled isoflurane and randomized to treatment for one oropharyngeal instillations of either PBS, or LPS, 2.5 μg/mL (Sigma-Aldrich, St. Louis Mo.) (Time=0 hr). The PBS group was instilled first to avoid cross-contamination with LPS. The mice were allowed to recover from anesthesia, given full access to food and water. […] Some of the mice received oropharyngeal instillations of mut-sFasL at 4 hr and were euthanized at 24 hr (“early” group). Other mice received oropharyngeal mut-sFasL at 24 hours and were euthanized at 48 hr (“late” group). In both cases, mut-sFasL doses were 0, 30 and 100 ng/mL. The number of mice used per group was 6, and the total number of mice was 54.
# Following instillations, the mice were monitored for signs of discomfort every 15 minutes during the first hour, and then every four hours during daytime. The primary monitoring parameters were loss of prone posture, loss of movement with mild physical stimulation, weight loss of >20% (weight was measured once per day) and severe respiratory distress. Secondary monitoring parameters included ruffled fur, nasal or ocular discharge and an abnormal respiratory pattern. The presence of one major parameter or two minor parameters was considered an indication for euthanasia, but no mice met these criteria. […]
# [1] = LPS, 24 hr (early group), mut-sFasL 30
# [2] = LPS, 24 hr (early group), mut-sFasL 100
# [3] = LPS, 48 hr (late group), mut-sFasL 30
# [4] = LPS, 48 hr (late group), mut-sFasL 100
molecule,measurement,setting,value
B1,BAL cytokine concentration IL-1β,[1],14.3 ± 10.6
same,BAL cytokine concentration KC,[1],118.4 ± 43.7
same,BAL cytokine concentration MIP-1α,[1],47.9 ± 10.6
same,BAL cytokine concentration MIP-2,[1],78.0 ± 28.1
same,BAL cytokine concentration IL-1β,[2],18.6 ± 5.5
same,BAL cytokine concentration KC,[2],154.4 ± 94.3
same,BAL cytokine concentration MIP-1α,[2],85.3 ± 20.0
same,BAL cytokine concentration MIP-2,[2],124.1 ± 29.1
same,BAL cytokine concentration IL-1β,[3],37.8 ± 23.3
same,BAL cytokine concentration KC,[3],113.2 ± 55.8
same,BAL cytokine concentration MIP-1α,[3],154.5 ± 78.7
same,BAL cytokine concentration MIP-2,[3],146.7 ± 72.7
same,BAL cytokine concentration IL-1β,[4],44.5 ± 23.1
same,BAL cytokine concentration KC,[4],136.9 ± 51.9
same,BAL cytokine concentration MIP-1α,[4],153.9 ± 42.4
same,BAL cytokine concentration MIP-2,[4],135.7 ± 29.9
same,BAL IgM,LPS-induced increase,did not affect; also recorded: had no effect
same,BAL total protein,LPS-induced increase,did not affect; also recorded: had no effect
same,lung homogenate caspase-3/7 activity,LPS-induced increase,did not affect; also recorded: had no effect
same,BAL IL-1β (in words),LPS-treated mice,increase
same,BAL KC (in words),LPS-treated mice,not affected
same,BAL MIP-1α (in words),LPS-treated mice,increase
same,BAL MIP-2 (in words),LPS-treated mice,not affected
same,weight loss,"LPS-treated mice, percent change from initial weight",not affected; also recorded: Weight loss was similar regardless of treatment
same,BAL cytokine concentration IL-1β,"PBS group, mut-sFasL 30",0.2 ± 0.0
same,BAL cytokine concentration KC,"PBS group, mut-sFasL 30",1.2 ± 0.6
same,BAL cytokine concentration MIP-1α,"PBS group, mut-sFasL 30",0.08 ± 0.03
same,BAL cytokine concentration MIP-2,"PBS group, mut-sFasL 30",0.1 ± 0.0
same,BAL cytokine concentration IL-1β,"PBS group, mut-sFasL 100",0.2 ± 0.1
same,BAL cytokine concentration KC,"PBS group, mut-sFasL 100",1.9 ± 0.9
same,BAL cytokine concentration MIP-1α,"PBS group, mut-sFasL 100",0.29 ± 0.28
same,BAL cytokine concentration MIP-2,"PBS group, mut-sFasL 100",2.3 ± 2.8
same,lung apoptosis or permeability measurements,PBS-treated mice,did not lead to an increase in lung apoptosis or permeability measurements
same,effect of early administration,"early group (mut-sFasL 4 hours after LPS, euthanized 24 h)",no measurable effect
same,BAL concentration of MCP-1,late group,decrease; also recorded: reduced
same,BAL concentration of MIP-1β,late group,decrease; also recorded: reduced
same,BAL concentration of TNF-α,late group,decrease; also recorded: reduced
same,BAL total cell counts,"late group (mut-sFasL 24 h after LPS, euthanized 48 h), 100 ng/mL, 100 ng/g",decreased; also recorded: reduced
same,total lung (homogenate) MPO activity,"late group, doses of 30 and 100 ng/mL, 100 ng/g",significantly decreased; also recorded: reduced
same,pro-injury or pro-inflammatory effects,,did not have important pro-injury or pro-inflammatory effects at any dose
same,pro-injury or pro-inflammatory effects,listed as sFasL with mutated stalk region,not injurious in normal lungs
